Experiments:
HLA-DR15 (DRB1*15:02) = target: T1, HLA-DR15 (DRB1*15:02) (human); assay: concluded from IFN-gamma ELISPOT with peptide-pulsed L cells expressing single HLA class II molecules and blocking mAbs; no direct binding assay
T1 construct: whole, on cells; MHC class II molecule on transfected L cells (L-DR15); also called L-DR15 (mouse L cells expressing it)
Method: (§1) The immune response of Th cells to APCs pulsed with peptides were assessed by IFN-gamma ELISPOT assays (Human IFN-gamma ELISPOT kit, BD Biosciences) as described previously (Tomita Y, et al. Cancer Sci; 102: 697-705.). Briefly, the frequency of peptide-specific CD4⁺ T cells producing IFN-gamma per 3×10⁴ bulk CD4⁺ T cells upon stimulation with peptide-pulsed PBMCs (3×10⁴ cells/well), or 1×10⁴ bulk CD4⁺ T cells upon stimulation with peptide-pulsed HLA-DR or DP-expressing L-cells (5×10⁴/well) was analyzed. To determine restriction HLA molecules involved in antigen presentation, blocking of antigen-induced IFN-gamma production was investigated by adding anti-HLA-DR mAb (L243, Biolegend), anti-HLA-DP mAb, (B7/21, abcam), anti-human HLA-DQ mAb (SPV-L3, abcam), or anti-HLA class I mAb, (W6/32, abcam). All mAbs were used at a final concentration of 5 micro-g/ml. Cells cultured with HIV-derived peptides were used as negative control. Cells cultured with PMA (100 ng/ml; Sigma-Aldrich) and ionomycin (500 ng/ml; Sigma-Aldrich) were used as positive controls. All assessments of IFN-gamma ELISPOT assays were carried out in duplicate or triplicate, and results corresponded to mean values.

HLA-DR8 (DRB1*08:03) = target: T2, HLA-DR8 (DRB1*08:03) (human); assay: as above
T2 construct: whole, on cells; MHC class II molecule on transfected L cells (L-DR8); also called L-DR8 (mouse L cells expressing it)
Method: as §1

Binder: KWTEPYCVIAAVKIFPRFFMVAKQ (Synthetic 24-mer, purity >90%) [LY6K (119-142) long peptide]
- binding result (HLA-DR15 (DRB1*15:02)): binds
- binding result (HLA-DR8 (DRB1*08:03)): binds
